In the assay the target is 85 kD protein / PI3 kinase (phosphatidylinositol 3' kinase) of BALB/c 3T3 cells (mouse (BALB/c 3T3 cells)). The experiment in a line: competition: range of peptide concentrations preincubated with 3T3 lysate before immobilised receptor m1; in vitro kinase and PI3 kinase assays.

Square brackets hold non-standard residues; d marks the D form. Ends that are not written are not given here. pY = N[C@@H](Cc1ccc(OP(=O)(O)O)cc1)C(=O)O

Sequence of 85 kD protein / PI3 kinase (phosphatidylinositol 3' kinase) of BALB/c 3T3 cells (mouse (BALB/c 3T3 cells)) (P26450 2-724): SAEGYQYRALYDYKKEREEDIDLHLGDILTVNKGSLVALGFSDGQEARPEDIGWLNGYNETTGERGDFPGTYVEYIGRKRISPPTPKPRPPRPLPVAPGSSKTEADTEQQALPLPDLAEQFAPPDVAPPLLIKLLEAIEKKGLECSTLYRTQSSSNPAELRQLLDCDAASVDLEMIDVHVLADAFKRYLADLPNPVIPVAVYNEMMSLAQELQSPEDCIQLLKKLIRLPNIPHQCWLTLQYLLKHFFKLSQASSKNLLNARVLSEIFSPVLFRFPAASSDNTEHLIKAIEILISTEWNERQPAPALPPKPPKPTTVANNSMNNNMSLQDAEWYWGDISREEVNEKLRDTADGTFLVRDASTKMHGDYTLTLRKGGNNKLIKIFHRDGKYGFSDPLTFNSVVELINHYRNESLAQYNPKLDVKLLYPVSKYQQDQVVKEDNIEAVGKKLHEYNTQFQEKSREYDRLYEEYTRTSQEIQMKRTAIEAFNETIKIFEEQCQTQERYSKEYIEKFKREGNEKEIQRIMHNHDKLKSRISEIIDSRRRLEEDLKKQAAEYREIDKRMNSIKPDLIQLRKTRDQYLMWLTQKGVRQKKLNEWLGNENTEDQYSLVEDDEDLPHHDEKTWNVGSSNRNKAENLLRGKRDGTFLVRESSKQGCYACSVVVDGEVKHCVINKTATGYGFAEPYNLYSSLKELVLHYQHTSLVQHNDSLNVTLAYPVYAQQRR

On to GGYMDMSKDESID[pY]VPMLDM [peptide Y719P], for which the IC50 was less than 5 µM.

The values above are taken from US6372438.
